Measurements from the supplement of paper PMC9170038.

Tested on: K4 kissing-loop RNA reporter
Experiment: apparent KD of K4 kissing-loop reporter; higher = weaker reporter binding
Settings: Eterna round: R107
Procedure: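 RNA-MaP round R107: designed RNA switches with theophylline, tryptophan, arginine or FMN aptamers are transcribed on-chip within common flanks. They are titrated with a labelled K4 kissing-loop RNA reporter in RNA-MaP buffer (100 mM Tris pH 7.5, 80 mM KCl, 4 mM MgCl2), without ligand or with the indicated ligand. Median apparent KD per design.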

[1] = input ligand: theophylline 20 uM
[2] = input ligand: tryptophan 2.4 mM
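Also: bound reporter read as fluorescence of individual clusters on recovered sequencing chips by microscopy, with normalized cluster intensities fitted with a binding model.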

| Sequence | apparent KD of K4 kissing-loop reporter (input ligand: FMN 200 uM) [µM] | apparent KD of K4 kissing-loop reporter (input ligand: arginine 13.2 mM) [µM] | apparent KD of K4 kissing-loop reporter (input ligand: none) [µM] | apparent KD of K4 kissing-loop reporter [1] [µM] | apparent KD of K4 kissing-loop reporter [2] [µM] |
| --- | --- | --- | --- | --- | --- |
| AUGUACAUUCUCAGUGAUGUUGGGUUGUAACGAGGACCGGUACGGCCGCCACUCGGGAUGUGGUAUAUAGAUGUAUGUGUAGCAU [skye_SS_TA] | 0.612 | 0.271 | 0.446 | 0.512 | 0.439 |
| AUGUCUUAUAAACUCAUGGUUUCGACAGAUACCAGCUUCGAGAGGAGCCCUUGGCAGCUGCAUGAGUGAUGUUCAUGUACGAAGA [KL-XTheoA6] | 0.37 | 0.336 | 0.516 | 0.315 | 0.301 |
| AUUAAUAACAGAGGAUAUGCAUUAUUAUUAUUUUUAAAUAAUAAAUGCAGUGAUGUUGCAUAUUAAGCAGAAGGCUGAUUUAUUU [JR_SSFMNB_Sub011] | 0.137 | 0.516 | 0.484 | 0.439 | 0.353 |
| AUUAUAAAGACGGCCGCCACUGAGAGUAGUGAUGUUACUCUUUUCCUUUAGAUAUUAUAUUUUAUCAGGACCGGGUUUUUUGAUU [JR_Nu_ExcTryptoB_Sub025] | 0.0973 | 0.0867 | 0.0903 | 0.0881 | 0.0919 |
| AUUAUAAAGUCGGCCGCCACUGAGAGUAGUGAUGUUACUCUAUUCCUUUAGAUAUUAUAUUUUAUCAGGACCGGGACAUCAGAUU [JR_ExcTryptoB_Sub019] | 0.332 | 0.341 | 0.317 | 0.29 | 0.228 |
| AUUAUAAAGUCGGCCGCCACUGAGAGUAGUGAUGUUACUCUUUUCCUUUAGAUAUUAUAUUUUAUCAGGACCGGGACAUCAGAUU [JR_ExcTryptoB_Sub020] | 0.198 | 0.17 | 0.208 | 0.18 | 0.162 |
| AUUCGUUUAUGUGAUACCAGACUUUGCAGUGAUGUUGCAUUAAUUAAAGAUGUUUAGUUUGUCCCUUGGCAGCACUAUUUAUUUA [JR_SSTheophyB_Sub002] | 0.0431 | 0.0844 | 0.0496 | 0.0833 | 0.0389 |
| AUUCGUUUAUGUGAUACCAGACUUUGCAGUGAUGUUGCAUUAAUUAUUGAUGAUUAGUUUGUCCCUUGGCAGCACUAUUUAUUUA [JR_SSTheophyB_Sub003] | 0.0546 | 0.105 | 0.0638 | 0.104 | 0.0477 |
| AUUCUGUUUUUGAUGUUUAUUGUAUAAUGGCAGGAUAUCGUAGAAGCGAGAAGGGCUUUUAUGCGUUAUGAGUGAUGUUUGUAGG [eyeefvmullin] | 0.373 | 0.26 | 0.284 | 0.319 | 0.256 |
| AUUCUUUUUUUGAUGUUUUUUGUAUAAUGGCAGGAUAUCGUAGAAGCGAGAAGGGCUUUUAUGCGUUAUGAGUGAUGUUUGUAGG [szeewvmullin] | 0.254 | 0.262 | 0.261 | 0.34 | 0.205 |
| AUUUAUGUUUCGGCCGCCACUCCACGUACUCAGAGAGAGUGAUGUUCUUUUUAUUAACGUCUAUGGAGGACCGGGAAGAGGUGAG [theeternabot_exclusion_KL_Trp_B_37] | 0.672 | 0.64 | 0.93 | 0.931 | 0.536 |
| AUUUGUUUAUGUGAUACCAGACUUUGCAGUGAUGUUGCUUUUAUUUUUGAAUUUUAAAUAGUCCCUUGGCAGCACUAUGUAUUUA [JR_SSTheophyB_Sub009] | 0.0655 | 0.132 | 0.0828 | 0.137 | 0.0606 |
| AUUUUGGUUUAGAGUGAUGUUCCUUGUGUUCGAGGACCGGUACGGCCGCCACUCGGGUAGAAAAGAAAAGAAAUGUUUGAUUUUU [BDazzled - #10 SS Tryptophan A] | 0.251 | 0.105 | 0.548 | 0.0928 | 0.123 |
| CAGACAUGCGGUAGGUUCAAGCGCUGGGAAGGAGCGCAGAUGACUGCAGGUAGGUCGCCCAGUGAUGUUGGGCUUUCCACCUAUG [Onbeenbi] | 0.11 | 0.122 | 0.12 | 0.15 | 0.107 |
| CAUAAAAGGUGGAAGACGAAUCGGUGUCGCCGAGGACCGGUACGGCCGCCACUCGGUCAUCAAAUCCUUCCCGAGUGAUGUUCGA [theeternabot_sameState_KL_Trp_A_5] | 0.382 | 0.439 | 0.501 | 0.444 | 0.258 |
| CAUACCCAGUGAUGUUGGGUCGGUACCGAUACCAGUCGUACAGCCGACCCUUGGCAGCGGUAGCAUUGCCCGGCGUCGGCUUGUG [theeternabot_exclusion_KL_Theo_A_17] | 0.767 | 0.581 | 0.625 | 0.445 | 0.381 |

| Sequence | apparent KD of K4 kissing-loop reporter (input ligand: FMN 200 uM) [µM] | apparent KD of K4 kissing-loop reporter (input ligand: arginine 13.2 mM) [µM] | apparent KD of K4 kissing-loop reporter (input ligand: none) [µM] | apparent KD of K4 kissing-loop reporter [1] [µM] | apparent KD of K4 kissing-loop reporter [2] [µM] |
| --- | --- | --- | --- | --- | --- |
| CAUACGCAUGGAGGAUAUGAGAUUACUCAUAUCAUUUAAUAUUCUCAGUGAUGUUGAGAUUUAGACUCAGAAGGCCAUGUGUAUG [Ex FMN B 13] | 0.302 | 0.31 | 0.35 | 0.357 | 0.317 |
| CAUACGCAUGGAGGAUAUGAGAUUUCUCAUAUUAUUUAAUAUUCUCAGUGAUGUUGAGAAUUAAACUCAGAAGGCCAUGUGUAUG [Ex FMN B 4] | 0.296 | 0.149 | 0.164 | 0.181 | 0.163 |
| CAUAUAUAUAGAGGAUAUCGAGUAGAGUGAUGUUCUGCCUGGGUUGGCUCGCAAGGGCCUUCCCAGCGAGAAGGCUAUAUAUAUG [harrys-mod#1ED5.33] | 0.225 | 0.399 | 0.502 | 0.431 | 0.482 |
| CAUCACGCAAUCACGGAUGCAAGCAUUGAUACCAGAACCGAUUAUUUCCCUUGGCAGCAACACGGAGUGAUGUUCCUAGCAUAUA [theeternabot_sameState_KL_Theo_A_21] | 0.0712 | 0.122 | 0.094 | 0.209 | 0.0755 |
| CCAAUCAGUUACGAUACCAGUCUAAUAUAUUUGAUCAAAACCCUCGCCGAGUGAUGUUCGGACCCUUGGCAGCGUCUGGGACAGG [fcctmullin] | 0.502 | 0.417 | 0.446 | 0.474 | 0.394 |
| CCAUCGCUAUUCGAUACCAGCCAAGAGGUCUUUGGCCUCUUAAUGGAGUGAUGUUCCAUUGGCCCUUGGCAGCGAAUAGUGAUGG [Theophylline B K4 18] | 0.771 | 0.489 | 0.723 | 0.823 | 0.798 |
| CCAUCGCUAUUCGAUACCAGCUACUUAGUGAUGUUAAGUUAAAAUAAAUUGUAGAUUAAAAGCCCUUGGCAGCGAAUAGUGAUGG [Theophylline B K4 19] | 0.149 | 0.134 | 0.15 | 0.103 | 0.136 |
| CCAUCGCUAUUCGAUACCAGCUCCUUAGUGAUGUUAAGGUUUUACGCUCUGUAGGAGCGAAGCCCUUGGCAGCGAGUAGUGAUGG [#04 K4 Theophylline B Same State] | 1.12 | 0.832 | 1.06 | 0.716 | 1.11 |
| CCGGGCGGCCGAAGGAGCGGGCGGGCCCGAGUGAUGUUCGGGUGGACCGUGAGGUCCGGUGCCCAGGUAGGUCGCGGUUCCGCCC [#2 Same State - Arginine B Attempt #7 (HarryS)] | 0.156 | 0.123 | 0.157 | 0.115 | 0.134 |
| CCUAUCUCAUACGAUACCAGUCAAUGAUAUUUUAUCAAUGCCAUCACCGAGUGAUGUUCGGACCCUUGGCAGCGUAUGGGAUAGG [whbob_Ex_Theo_B_sa101] | 0.266 | 0.212 | 0.253 | 0.417 | 0.238 |
| CCUAUCUCAUACGAUACCAGUCAAUUAAAACGAGUGAUGUUCGAAAAUUUGCCAUAUAAUGACCCUUGGCAGCGUAUGGGAUAGG [Ex Theophylline B K4 7] | 0.187 | 0.196 | 0.194 | 0.197 | 0.164 |
| CCUAUCUCAUACGAUACCAGUCUACGAUAUUUUAUCGUUGCCAUCACCGAGUGAUGUUCGGACCCUUGGCAGCGUAUGGGAUAGG [Ex Theophylline B K4 5] | 0.34 | 0.277 | 0.355 | 0.544 | 0.346 |
| CCUAUCUCAUACGAUACCAGUGAAAUAAUAUUUAUAAGCAGUGAUGUUGCAUUCCAAGAACACCCUUGGCAGCGUAUGGGAUAGG [Ex Theophylline B K4 19] | 0.168 | 0.187 | 0.178 | 0.189 | 0.143 |
| CCUGCGGCUUCCGGCGGGCCCGAUUUAUAAAAGGAUAUGUGCGUACACAGAAGGUUUAACGAGGGACCGAGAGUGAUGUUCUCCU [theeternabot_sameState_KL_FMN_A_33] | 0.585 | 0.174 | 0.316 | 0.37 | 0.418 |
| CGAAGAUUCCAUGAUACCAGCCUCGGCCCAUAGAGUGAUGUUCUAGUCGGGUCCGUUCGCGGCCCUUGGCAGCAUUUCACCACGA [theeternabot_sameState_KL_Theo_B_44] | 0.197 | 0.172 | 0.178 | 0.216 | 0.159 |
| CGAGUACAUUGCGAUACCAGCGAUAGCAGUUCAACGCGCAGUCCGUUUAGUGAUGUUAGACGCCCUUGGCAGCGCUUCCUGGCAA [theeternabot_exclusion_KL_Theo_B_44] | 0.519 | 0.324 | 0.46 | 0.52 | 0.393 |
